# B1: S1*/S2 RNA primer/template (dsRNA)
# RNA 1: GCUAUGUGAGAUUAAGAAUU
# RNA 2: UUUUUUUUUUAAUUCUUAAUCUCACAUAGC
# How the values were obtained:
# [1] = molecular target: nsp12 (RdRp catalytic subunit, Sf9) (SARS-CoV-2, UniProt P0DTD1 4393-5324); assay: EMSA; nsp12 alone; settings: protein: recombinant; tags: 6xHis (Results: C-terminal; Methods: His tag after 5' ATG); label: 5'-biotin on strand 1 (S1); 5' overhang 10 nt (U10) on strand 2
# [2] = molecular target: nsp12 (RdRp catalytic subunit, Sf9);nsp7;nsp8 (SARS-CoV-2;SARS-CoV-2;SARS-CoV-2, UniProt P0DTD1;P0DTD1;P0DTD1 4393-5324;3860-3942;3943-4140, ||); assay: EMSA; settings: protein: recombinant;recombinant;recombinant; tags: 6xHis (Results: C-terminal; Methods: His tag after 5' ATG);6xHis (Results: C-terminal; legend: His6-nsp7);6xHis (Results: C-terminal; legend: His6-nsp8); copies: 1;1;2; label: 5'-biotin on strand 1 (S1); 5' overhang 10 nt (U10) on strand 2
binder,measurement,setting,value
B1,binding result,[1],binds
same,binding result,[2],binds

# Reference: PMC9021610
